Earlier results, collected in PMC6722209.

How the values were obtained:
[1] = target: IgG1 Fc Fc (Homo sapiens) [IgG part: P01857]; test: fluorescence anisotropy
[2] = target: IgG1 Fc Fc (Homo sapiens) [IgG part: P01857]; test: ITC and SPR

Chain of TRIM21 PRYSPRY (P19474 268-465): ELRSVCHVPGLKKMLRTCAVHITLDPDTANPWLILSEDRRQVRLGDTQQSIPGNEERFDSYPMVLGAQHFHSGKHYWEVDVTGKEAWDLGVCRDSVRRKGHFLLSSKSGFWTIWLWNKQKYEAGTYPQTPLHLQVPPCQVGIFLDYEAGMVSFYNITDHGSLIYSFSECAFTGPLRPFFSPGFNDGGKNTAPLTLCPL
Chain of TRIM21 (P19474 whole entry): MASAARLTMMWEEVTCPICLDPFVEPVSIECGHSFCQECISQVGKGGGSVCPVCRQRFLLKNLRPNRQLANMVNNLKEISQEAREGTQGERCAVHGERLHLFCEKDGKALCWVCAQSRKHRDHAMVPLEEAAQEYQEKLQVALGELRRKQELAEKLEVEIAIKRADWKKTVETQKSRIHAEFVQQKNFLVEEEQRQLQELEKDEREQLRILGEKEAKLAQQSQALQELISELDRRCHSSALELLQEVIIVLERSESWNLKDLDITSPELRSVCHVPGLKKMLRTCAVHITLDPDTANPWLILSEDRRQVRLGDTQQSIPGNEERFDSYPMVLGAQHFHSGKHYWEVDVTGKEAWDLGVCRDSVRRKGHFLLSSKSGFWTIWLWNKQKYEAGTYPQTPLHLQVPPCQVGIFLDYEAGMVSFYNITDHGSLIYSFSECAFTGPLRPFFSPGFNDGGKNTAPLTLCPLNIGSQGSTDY

Row | Kd [1] [nM] | Kd [2] [nM] | Substance
1 | 0.6 | – | TRIM21 (from UniProt P19474)
2 | – | 175 | TRIM21 PRYSPRY (from UniProt P19474)
